How the values were obtained:
[1] = molecular target: microtubules polymerised from porcine tubulin (porcine); assay: single-molecule TIRF microscopy of binding to microtubules; dynein (100 nM in the assembly mix, 1 in 20 dilution) alone or with a 20x or 300x molar excess of LIS1 on immobilised taxol/GMPCPP-stabilised microtubules, without EB1 and dynactin; 2.5 mM ATP
[2] = molecular target: native dynactin complex purified from pig brain (pig (purified from pig brain))
[3] = molecular target: human cytoplasmic dynein-1 complex (recombinant, SNAPf tag on the heavy chain) (human) (UniProt Q14204)
[4] = molecular target: human cytoplasmic dynein-1 complex (recombinant, SNAPf tag on the heavy chain) (human) (UniProt Q14204); assay: single-molecule TIRF co-localisation on microtubules; Alexa647-BICD2N (10x) and TMR-dynein (20 nM in the assembly mix, 1 in 2 dilution) with EB1, dynactin (2x) and LIS1 (20x) on dynamic microtubules

Chain of SNAPf::BICD2N (residues 1-400 of mouse Bicaudal-D2 with an N-terminal SNAPf tag) (Q921C5 1-400): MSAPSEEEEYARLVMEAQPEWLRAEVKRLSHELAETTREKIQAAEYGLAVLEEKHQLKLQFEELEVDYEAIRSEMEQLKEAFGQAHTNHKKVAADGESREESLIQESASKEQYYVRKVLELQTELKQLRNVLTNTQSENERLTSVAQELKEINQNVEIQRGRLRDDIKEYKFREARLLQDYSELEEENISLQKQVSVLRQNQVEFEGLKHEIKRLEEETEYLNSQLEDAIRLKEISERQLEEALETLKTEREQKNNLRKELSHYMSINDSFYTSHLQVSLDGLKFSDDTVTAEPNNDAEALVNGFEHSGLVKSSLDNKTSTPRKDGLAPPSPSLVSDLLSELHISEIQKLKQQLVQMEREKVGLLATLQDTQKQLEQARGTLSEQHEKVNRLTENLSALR

Substance | fold increase of the landing rate on the lattice with a 300-fold molar excess of LIS1 against no LIS1 [1] | plus-end tracking of Alexa647-dynein on growing microtubules with EB1 and dynactin (TIRF): maximal duration of tracking events [2] | plus-end tracking of Alexa647-dynein on growing microtubules with EB1 and dynactin (TIRF): mean duration of tracking events [2] | proportion of microtubule-associated dynein complexes in minus end-directed motion with dynactin and BICD2N, without (45%) and with LIS1 (70%) [3] | percent of plus-end tracking events of TMR-dynein with Alexa647-BICD2N signal [4]
human cytoplasmic dynein-1 complex (recombinant, SNAPf tag on the heavy chain) (from UniProt Q14204 1-4646; O43237-1 1-492; P63172 1-113; P63167 1-89; Q9NP97-1 1-96) | 3 fold | 9 s | 4 s | – | –
SNAPf::BICD2N (residues 1-400 of mouse Bicaudal-D2 with an N-terminal SNAPf tag) (from UniProt Q921C5 1-400) (domain or fragment) | – | – | – | 70% | 40%

Reference: publication PMC5413349
